In patent publication US20240218393, “VECTORS ENCODING GENE EDITING SYSTEMS AND USES THEREOF” (Mammoth Biosciences, Inc., published 2024):

Molecular target: T1, CasM.19952
T1 chain: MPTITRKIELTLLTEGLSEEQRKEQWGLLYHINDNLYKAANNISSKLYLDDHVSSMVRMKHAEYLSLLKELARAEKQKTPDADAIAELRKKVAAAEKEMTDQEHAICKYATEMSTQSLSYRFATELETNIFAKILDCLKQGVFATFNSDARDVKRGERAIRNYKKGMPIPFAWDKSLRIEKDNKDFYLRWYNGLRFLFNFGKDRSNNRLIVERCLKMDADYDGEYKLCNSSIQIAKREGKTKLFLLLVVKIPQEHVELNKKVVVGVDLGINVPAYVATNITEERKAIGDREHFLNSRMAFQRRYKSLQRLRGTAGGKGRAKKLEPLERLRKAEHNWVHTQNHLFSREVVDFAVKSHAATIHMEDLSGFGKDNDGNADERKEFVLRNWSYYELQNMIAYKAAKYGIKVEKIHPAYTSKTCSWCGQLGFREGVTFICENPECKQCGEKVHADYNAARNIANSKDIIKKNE
Test: cell_activity; HEK293T, plasmid lipofection; PAM TCG or KYG (Table 1.1)
Conditions: tags: expressed from plasmid or scAAV
Method: CasM.19952 was tested for its ability to produce indels in HEK293T cells. Briefly, a plasmid encoding CasM.19952 and a guide RNA was delivered by lipofection to HEK293T cells. This was performed for a variety of guide RNAs targeting up to twenty-four loci adjacent to biochemically determined PAM sequences. Indels were detected by next generation sequencing of PCR amplicons at the targeted loci and indel percentage was calculated as the fraction of sequencing reads containing insertions or deletions relative to an unedited reference sequence. Sequencing libraries with less than 20% of reads aligning to the reference sequence were excluded from the analysis for quality control purposes. “No plasmid” and SpyCas9 were included as negative and positive controls, respectively. […] TABLE 8 describes the sequences of the single guide RNAs tested that provided the greatest percent of reads with indels. Non-bold, non-italicized, capital letters indicate the tracrRNA region of the guide RNA; italicized letters indicate a linker; bold letters indicate the repeat sequence; and the lowercase letters represent the spacer sequence.

B1: sgRNA SEQ 202 ; target of sgRNA SEQ 202 (protospacer) (ssRNA ; dsDNA)
RNA: UGGGGCAGUUGGUUGCCCUUAGCCUGAGGCAUUUAUUGCACUCGGGAAGUACCAUUUCUCAGAAAUGGUACAUCCAACUCUAGGCGCCCGCUAAGUUC
DNA 1: TCTAGGCGCCCGCTAAGTTC
DNA 2: GAACTTAGCGGGCGCCTAGA
activity: 13.5 % indel reads

B2: sgRNA SEQ 204 ; target of sgRNA SEQ 204 (protospacer) (ssRNA ; dsDNA)
RNA: UGGGGCAGUUGGUUGCCCUUAGCCUGAGGCAUUUAUUGCACUCGGGAAGUACCAUUUCUCAGAAAUGGUACAUCCAACCGUGCUGUUUCCUCCCCACG
DNA 1: CGTGCTGTTTCCTCCCCACG
DNA 2: CGTGGGGAGGAAACAGCACG
activity: 19.4 % indel reads

B3: sgRNA SEQ 206 ; target of sgRNA SEQ 206 (protospacer) (ssRNA ; dsDNA)
RNA: UGGGGCAGUUGGUUGCCCUUAGCCUGAGGCAUUUAUUGCACUCGGGAAGUACCAUUUCUCAGAAAUGGUACAUCCAACGGGGGCGGGGGGGAGAAAAA
DNA 1: GGGGGCGGGGGGGAGAAAAA
DNA 2: TTTTTCTCCCCCCCGCCCCC
activity: 18.4 % indel reads
